B1: Phage-750 (peptide)
peptide: YCEGHSSEYLGKCL
B2: Phage-751 (peptide)
peptide: YCDGHLPRYMEKCM
B3: Phage-752 (peptide)
peptide: YCDGHSSAYIDKCL
B4: Phage-753 (peptide)
peptide: YCEGHLPSYLAKCL
B5: Phage-754 (peptide)
peptide: YCDGHAPEFIRKCL
B6: Phage-755 (peptide)
peptide: YCEGHAPQYMSKCL
B7: Phage-756 (peptide)
peptide: YCDGHDARYMTKCL
B8: Phage-757 (peptide)
peptide: YCEGHSVEYILKCL
B9: Phage-758 (peptide)
peptide: YCEGHSSAYMRKCL
B10: Phage-881 (peptide)
peptide: YCAGHASEYLQKCL
B11: Phage-772 (peptide)
peptide: YCEGHSAIYIAKCM
B12: Phage-773 (peptide)
peptide: YCFGHFPEYMAKCL
B13: Phage-774 (peptide)
peptide: YCDGHTGMYISKCL
B14: Phage-775 (peptide)
peptide: YCSGHSWAYIGKCL
B15: Phage-776 (peptide)
peptide: YCAGHAAEYMWKCL
B16: Phage-777 (peptide)
peptide: YCQGHFPQYMAKCL
B17: Phage-778 (peptide)
peptide: YCEGHVPEYLVKCL
B18: Phage-779 (peptide)
peptide: YCDGHSKEYMSKCL
B19: Phage-799 (peptide)
peptide: YCDGHIKEYMSKCL
B20: Phage-819 (peptide)
peptide: YCDGHSGEYMSKCL
B21: Phage-780 (peptide)
peptide: YCDGHLPEYMLKCL
B22: Phage-880 (peptide)
peptide: YCDGHLPEYMEKCL
B23: Phage-781 (peptide)
peptide: YCAGHLDVYMSKCL
B24: Phage-784 (peptide)
peptide: YCAGHTPEYLDKCL
B25: Phage-785 (peptide)
peptide: YCEGHDIRYMMKCL
B26: Phage-786 (peptide)
peptide: YCDGHEERYMAKCL
B27: Phage-787 (peptide)
peptide: YCSGHVPEYMEKCL
B28: Phage-788 (peptide)
peptide: YCDGHIPQYVEKCL
B29: Phage-789 (peptide)
peptide: YCAGHAEIYMQKCL
B30: Phage-790 (peptide)
peptide: YCEGHAHEYMEKCV
B31: Phage-791 (peptide)
peptide: YCDGHHAEYMWKCL
B32: Phage-792 (peptide)
peptide: YCEGHTQAYLAKCL
B33: Phage-793 (peptide)
peptide: YCAGHSAQYMWKCL
B34: Phage-794 (peptide)
peptide: YCDGHSFEYMAKCL
B35: Phage-821 (peptide)
peptide: YCDGHSMEYMAKCL
B36: Phage-795 (peptide)
peptide: YCDGHSAEYLGKCL
B37: Phage-796 (peptide)
peptide: YCVGHSPEYIWKCL
B38: Phage-797 (peptide)
peptide: YCDGHELMYMEKCL
B39: Phage-798 (peptide)
peptide: YCAGHLEMYMSKCL
B40: Phage-813 (peptide)
peptide: YCAGHSLQYLGKCY
B41: Phage-814 (peptide)
peptide: YCAGHAAIYMAKCL
B42: Phage-815 (peptide)
peptide: YCDGHSMTYMAKCI
B43: Phage-816 (peptide)
peptide: YCDGHKWEYLQKCL
B44: Phage-817 (peptide)
peptide: YCDGHDPQYIRKCI
B45: Phage-818 (peptide)
peptide: YCEGHLPMYMQKCM
B46: Phage-820 (peptide)
peptide: YCEGHAREYMDKCL
B47: Phage-822 (peptide)
peptide: YCDGHSPQYLWKCL
B48: Phage-288 (peptide)
peptide: YCEGHRAEYMEKCL
B49: Phage-291 (peptide)
peptide: YCMGHQPEYMQKCL
B50: Phage-293 (peptide)
peptide: YCDGHSAEYLAKCL
B51: Phage-297 (peptide)
peptide: YCAGHSPEFMEKCL

What follows are binders tested against Anti-CD28 Fab (SEQ ID NOs: 202, 203) (assay: phage binding ELISA on captured Fab;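 further: clonal phage supernatants added briefly to wells pre-incubated with CD28 antigen or with blocking buffer only, then washed, bound phage read by ELISA using HRP-coupled anti-M13 antibody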).
Target sequence in this assay (VH, as listed by the source, chain 1 of 2): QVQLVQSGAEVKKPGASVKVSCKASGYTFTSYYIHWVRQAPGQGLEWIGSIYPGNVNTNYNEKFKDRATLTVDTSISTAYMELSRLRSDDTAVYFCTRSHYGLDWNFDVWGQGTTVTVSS
Target sequence in this assay (VL, as listed by the source, chain 2 of 2): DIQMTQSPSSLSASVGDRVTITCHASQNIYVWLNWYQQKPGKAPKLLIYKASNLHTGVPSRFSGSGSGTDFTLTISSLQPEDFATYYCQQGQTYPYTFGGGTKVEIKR
Protocol: (§1) Clonal phage were harvested as crude supernatants and screened via standard ELISAs. […] Prior to the addition of clonal phage, wells were incubated with blocking buffer and CD28 antigen or blocking buffer alone. Without washing or aspirating, clonal phage supernatants were then added to the wells and incubated for a short time. Wells were then washed followed by detection of bound phage using a horse radish conjugated anti-M13 antibody.

Binder | Anti-CD28 Fab (SEQ ID NOs: 202, 203) signal
B1 | 1.05
B2 | 1.05
B3 | 1.05
B4 | 1.05
B5 | 1.05
B6 | 1.04
B7 | 1.04
B8 | 1.04
B9 | 1.04
B10 | 0.43
B11 | 0.98
B12 | 0.98
B13 | 0.98
B14 | 0.98
B15 | 0.97
B16 | 0.97
B17 | 0.96
B18 | 0.96
B19 | 0.91
B20 | 0.82
B21 | 0.96
B22 | 0.43
B23 | 0.96
B24 | 0.95

Binder | Anti-CD28 Fab (SEQ ID NOs: 202, 203) signal
B25 | 0.95
B26 | 0.94
B27 | 0.94
B28 | 0.94
B29 | 0.93
B30 | 0.93
B31 | 0.93
B32 | 0.93
B33 | 0.92
B34 | 0.92
B35 | 0.8
B36 | 0.92
B37 | 0.92
B38 | 0.92
B39 | 0.91
B40 | 0.86
B41 | 0.85
B42 | 0.84
B43 | 0.84
B44 | 0.83
B45 | 0.82
B46 | 0.8
B47 | 0.8

What follows are binders tested against T1, Anti-CD28 Fab (SEQ ID NOs: 202, 203) (assay: phage ELISA on captured biotinylated Fab;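 further: wells preblocked with or without CD28 antigen, then clonal phage supernatant added briefly, washed, and bound phage read out by ELISA using HRP-linked anti-M13 antibody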).
T1 construct: biotinylated and captured on neutravidin coated plates in the phage ELISA
T1 sequence (VH, as listed by the source, chain 1 of 2): as the sequence (VH, as listed by the source, chain 1 of 2) above
T1 sequence (VL, as listed by the source, chain 2 of 2): as the sequence (VL, as listed by the source, chain 2 of 2) above
Protocol: as §1

Binder | Anti-CD28 Fab signal
B48 | 1.93
B49 | 1.93
B50 | 1.93
B51 | 1.91

These binders were tested against Anti-CD28 Fab (SEQ ID NOs: 202, 203) (assay: phage binding ELISA on captured Fab, competitor CD28 antigen;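 further: clonal phage supernatant binding in wells preincubated with CD28 antigen in blocking buffer, detected by HRP-conjugated anti-M13 antibody ELISA, compared with blocking buffer alone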).
Target sequence in this assay (VH, as listed by the source, chain 1 of 2): as the sequence (VH, as listed by the source, chain 1 of 2) above
Target sequence in this assay (VL, as listed by the source, chain 2 of 2): as the sequence (VL, as listed by the source, chain 2 of 2) above
Protocol: as §1

Binder | Anti-CD28 Fab signal in the presence of CD28
B1 | 0.09
B2 | 0.06
B3 | 0.06
B4 | 0.06
B5 | 0.07
B6 | 0.08
B7 | 0.09
B8 | 0.06
B9 | 0.06
B10 | 0.06
B11 | 0.11
B12 | 0.07
B13 | 0.06
B14 | 0.07
B15 | 0.06
B16 | 0.07
B17 | 0.06
B18 | 0.07
B19 | 0.08
B20 | 0.06
B21 | 0.09
B22 | 0.07
B23 | 0.09
B24 | 0.06

Binder | Anti-CD28 Fab signal in the presence of CD28
B25 | 0.08
B26 | 0.06
B27 | 0.06
B28 | 0.08
B29 | 0.05
B30 | 0.07
B31 | 0.06
B32 | 0.1
B33 | 0.07
B34 | 0.06
B35 | 0.07
B36 | 0.07
B37 | 0.06
B38 | 0.06
B39 | 0.07
B40 | 0.06
B41 | 0.07
B42 | 0.06
B43 | 0.06
B44 | 0.06
B45 | 0.07
B46 | 0.07
B47 | 0.05

Each binder was assayed against T1, Anti-CD28 Fab (SEQ ID NOs: 202, 203) (assay: phage ELISA on captured Fab, wells pre-incubated with CD28 antigen (competitor: CD28);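 further: bound clonal phage detected with an HRP-linked anti-M13 antibody, compared against wells that received blocking buffer alone without CD28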).
Protocol: as §1

Binder | Anti-CD28 Fab signal in the presence of CD28
B48 | 0.06
B49 | 0.08
B50 | 0.08
B51 | 0.06
